The values that follow come from publication PMC10338342.

Data set [1] addresses CLOCK bHLH PAS-AB;BMAL1 bHLH PAS-AB WT (mouse;mouse) (UniProt O08785+Q9WTL8). The data set is described as follows: mass photometry. Particulars: EMSA/SeEN-seq: 20 mM Tris-HCl pH 7.5, 75 mM NaCl, 10 mM KCl, 1 mM MgCl2, 0.1 mg/ml BSA, 1 mM DTT, room temp ~1 h, TR-FRET: 20 mM Tris-HCl pH 7.5, 75 or 125 mM …. (A gel shift assay detects complexes by their altered migration in electrophoresis.)

Data set [2] relates to MYC bHLH-LZ;MAX bHLH-LZ (human;human), P01106-1+P61244. The data set is described as follows: SeEN-seq (EMSA + NGS). Particulars: 62.5 nM TF; EMSA/SeEN-seq: 20 mM Tris-HCl pH 7.5, 75 mM NaCl, 10 mM KCl, 1 mM MgCl2, 0.1 mg/ml BSA, 1 mM DTT, room temp ~1 h; TR-FRET: 20 mM Tris-HCl pH 7.5, 75 or 125 mM ….
Data set [3] addresses nucleosome core particle: human histone octamer (H2A, H2B, H3.1, H4) wrapped by DNA, P04908;P06899;P68431;P62805. The data set is described as follows: smTIRF colocalization single-molecule imaging. Particulars: substrate NCP.
In data set [4] the target is nucleosome core particle with H2B(T122C–biotin): H2A–H2B(T122C–biotin)–H3.1–H4 octamer wrapped by DNA (human) (UniProt P04908). The data set is described as follows: FRET or BRET; LANCE TR-FRET forward titration: increasing His–MYC-MAX added to H2B(T122C)-biotinylated NCP SHL+5.1 with Eu-streptavidin, in the presence or absence of OCT4. On the technique in general: Bioluminescence resonance energy transfer reports proximity on the nanometre scale.

Data set [5] has as its system MYC bHLH-LZ;MAX bHLH-LZ (human;human), P01106-1+P61244. The data set is described as follows: TR-FRET. Particulars: about threefold vs without, EMSA/SeEN-seq: 20 mM Tris-HCl pH 7.5, 75 mM NaCl, 10 mM KCl, 1 mM MgCl2, 0.1 mg/ml BSA, 1 mM DTT, room temp ~1 h, TR-FRET: 20 mM Tris-HCl pH 7.5, 75 or 125 mM …. For orientation: Time-resolved FRET reads energy transfer from a long-lived donor to a nearby acceptor.

Data set [6] concerns the target nucleosome core particle: human histone octamer (H2A, H2B, H3.1, H4) wrapped by DNA (human) (UniProt P04908). The data set is described as follows: mass photometry; CLOCK-BMAL1 with NCP SHL+5.8 (single E-box), 10 and 60 nM (1:6), 20 mM Tris-HCl pH 7.5, 100 mM KCl, 0.5 mM TCEP.
For data set [7] the target is unchanged. The data set is described as follows: mass photometry; CLOCK-BMAL1 with NCP SHL−6.2, 10 and 60 nM (1:6), 20 mM Tris-HCl pH 7.5, 100 mM KCl, 0.5 mM TCEP, 30 min room temperature.
Data set [8] has the same target. The data set is described as follows: mass photometry; CLOCK-BMAL1 with NCP SHL+5.8-tandem (2 E-boxes with 7-bp spacing in a 601 sequence), 10 and 60 nM (1:6), 20 mM Tris-HCl pH 7.5, 100 mM KCl, 0.5 mM TCEP.

One may read the stoichiometry N as a count of units in the complex or per binding partner.

Sequence of MYC bHLH-LZ;MAX bHLH-LZ (human;human), P01106-1+P61244 (P01106 366-452, chain 1 of 2): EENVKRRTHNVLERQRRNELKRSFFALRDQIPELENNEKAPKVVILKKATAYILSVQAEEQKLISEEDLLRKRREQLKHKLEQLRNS
Sequence of MYC bHLH-LZ;MAX bHLH-LZ (human;human), P01106-1+P61244 (P61244 22-102, chain 2 of 2): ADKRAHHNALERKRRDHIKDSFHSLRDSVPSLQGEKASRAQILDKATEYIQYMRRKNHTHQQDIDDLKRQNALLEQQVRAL

In turn, NCP SHL+5.8-tandem had a binding signal in data set [1] (tandem E-box) of 51 % bound.
Turning to SeEN-seq NCP, E-box at SHL+5.8, in data set [2], the binding signal (log2 enrichment) was 3.5.
Turning to “wild-type MYC-MAX–Spy, labelled with JF549–SpyCatcher (from UniProt P61244) MAX:Y73A; MAX:R76A”, in data set [3], the other: dwell time τoff,1 amounted to 0.86 s and the other: dwell time τoff,2 is 22 s.
As to “MYC-MAX bHLH LZ heterodimer (from UniProt P61244 22-102) (complex)”, in data set [4], the fold strengthening of the binding isotherm in the presence of OCT4 is 3 fold.
Take “wild-type MYC-MAX–Spy, labelled with JF549–SpyCatcher (from UniProt P61244) MYC:S405Y; MYC:A408R”: the other: dwell time τoff,1 in data set [3] worked out at 0.6 s.
Turning to NCP SHL+5.1 for TR-FRET, the binding signal (fold tighter with OCT4) in data set [5] was 3.
For SeEN-seq NCP, E-box at SHL-6.2, in data set [2], the binding signal (log2 enrichment) is 2.2.
Turning to “CLOCK-BMAL1 bHLH PAS-AB heterodimer (from UniProt O08785 26-395; Q9WTL8 62-441) (complex)”, in data set [6], the N (minority species) amounted to 2 and the percent bound (total amount of CLOCK-BMAL1 bound, single E-box) came to 19%. In data set [7], this substance had a stoichiometry N of 1. The substance further came in with a percent bound (total amount of CLOCK-BMAL1 bound, tandem E-boxes) in data set [8] of 51%.
In the case of NCP SHL+5.8 (W601), the binding signal in data set [1] (20 nM NCP, single E-box) amounted to 19 % bound.
